Molecular target: human macrophage mannose receptor C type 1 (MRC1) (human) (UniProt P22897)
Experiment: flow cytometry on stable pool of MRC1-transfected HT1080 cells compared to untransfected HT1080 cells

UniProt P22897, sequence (P22897 19-1456 limits assumed): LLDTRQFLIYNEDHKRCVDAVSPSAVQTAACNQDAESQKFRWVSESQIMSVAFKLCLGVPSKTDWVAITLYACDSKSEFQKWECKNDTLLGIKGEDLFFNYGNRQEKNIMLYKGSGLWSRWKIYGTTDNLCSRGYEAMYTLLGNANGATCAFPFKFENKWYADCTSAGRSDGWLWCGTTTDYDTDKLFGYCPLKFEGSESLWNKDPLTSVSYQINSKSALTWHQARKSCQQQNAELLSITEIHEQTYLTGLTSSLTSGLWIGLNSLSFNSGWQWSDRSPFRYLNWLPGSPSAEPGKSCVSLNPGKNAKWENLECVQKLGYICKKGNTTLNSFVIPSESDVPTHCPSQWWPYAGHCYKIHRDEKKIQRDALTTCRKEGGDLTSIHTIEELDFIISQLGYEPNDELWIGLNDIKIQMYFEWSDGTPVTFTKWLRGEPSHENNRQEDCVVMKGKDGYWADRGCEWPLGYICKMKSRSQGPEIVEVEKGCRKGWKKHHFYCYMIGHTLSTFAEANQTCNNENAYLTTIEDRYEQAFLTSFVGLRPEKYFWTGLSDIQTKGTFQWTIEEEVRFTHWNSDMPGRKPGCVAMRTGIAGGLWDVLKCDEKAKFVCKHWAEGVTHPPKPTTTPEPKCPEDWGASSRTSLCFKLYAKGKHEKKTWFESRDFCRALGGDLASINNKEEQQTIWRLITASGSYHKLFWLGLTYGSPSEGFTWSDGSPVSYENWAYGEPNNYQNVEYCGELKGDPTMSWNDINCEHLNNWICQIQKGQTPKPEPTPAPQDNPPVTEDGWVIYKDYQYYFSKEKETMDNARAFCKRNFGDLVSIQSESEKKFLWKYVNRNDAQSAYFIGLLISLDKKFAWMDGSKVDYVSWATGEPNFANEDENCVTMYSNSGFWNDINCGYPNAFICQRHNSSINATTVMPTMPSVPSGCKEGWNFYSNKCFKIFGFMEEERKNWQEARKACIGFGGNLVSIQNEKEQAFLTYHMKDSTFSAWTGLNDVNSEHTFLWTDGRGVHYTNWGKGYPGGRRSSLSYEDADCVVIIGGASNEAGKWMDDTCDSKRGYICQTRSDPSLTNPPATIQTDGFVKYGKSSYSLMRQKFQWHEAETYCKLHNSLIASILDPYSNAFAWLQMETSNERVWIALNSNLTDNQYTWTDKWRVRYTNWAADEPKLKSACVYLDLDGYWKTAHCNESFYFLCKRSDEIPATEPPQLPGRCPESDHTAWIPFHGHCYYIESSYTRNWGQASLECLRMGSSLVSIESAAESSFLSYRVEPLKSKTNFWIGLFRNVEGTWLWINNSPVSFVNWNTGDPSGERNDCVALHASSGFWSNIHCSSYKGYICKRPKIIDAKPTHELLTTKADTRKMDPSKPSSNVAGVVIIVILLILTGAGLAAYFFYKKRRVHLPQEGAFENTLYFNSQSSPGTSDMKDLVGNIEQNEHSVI

- Relative Fluorescence Intensity (RFI) above the background: 1.5 logs
Substance: FITC conjugated Mouse anti-human MRC1 antibody (BD Biosciences Cat #551135)

Source: patent US20130195836A1
